B1: TPR t1 (parent)
chain: GACCAAUCUGCCCUCAGAGCUCGAGAACAUCUUCGGAUGCAGAGGAGGCAGGCUUCGGUGGCGCGAUAGCGCCAACGUCCUCAACCUCCAAUGCAUCCCACCACAUGAUGAUGCCUGAAGAGCCUUGGUUUUUUG

Variants of B1 are the subject of this data set. As to the kind of experiment: polymerase ribozyme fitness, log enrichment relative to wild type (log ratio); higher = more active; in vitro selection for triplet polymerase activity. The essentials: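 Frozen incubation at −7 °C formed the core of a single, triplicate in vitro selection round applied to PCR-built, transcribed mutant libraries of each subunit of a heterodimeric triplet polymerase ribozyme. Extended constructs were gel-excised, captured with streptavidin beads and amplified by RT-PCR, and input and output libraries were Illumina-sequenced with a filter of ≥10 input reads and ≥1 read per output. Fitness is the logarithm of genotype enrichment relative to wild-type enrichment, with inverse-variance-weighted replicate averaging, and the logarithm is base 2.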
For the variant C72U U78G U109C, the “polymerase ribozyme fitness (log ratio)” value was -5.41.

For A75G C123U, the “polymerase ribozyme fitness (log ratio)” value turned out to be 1.55.

As for A74C C76A A121C, the “polymerase ribozyme fitness (log ratio)” value is -1.23.

On to C72G U131G, for which the “polymerase ribozyme fitness (log ratio)” value is -0.31.

In the case of A74C U130A, the “polymerase ribozyme fitness (log ratio)” value was -0.25.

Take A75U C76G C88A A90U C114U: the “polymerase ribozyme fitness (log ratio)” value was -2.85.

As to C72G C114U, the “polymerase ribozyme fitness (log ratio)” value was -2.37.

In the case of G77A U96G, the “polymerase ribozyme fitness (log ratio)” value is -1.12.

Take A74C A84U: the “polymerase ribozyme fitness (log ratio)” value was -0.261.

As for C72G C114A U130C U133G, the “polymerase ribozyme fitness (log ratio)” value is -1.37.

As for A75G C114A, the “polymerase ribozyme fitness (log ratio)” value was -2.36.

On to C72G U81A C82G G128C, for which the “polymerase ribozyme fitness (log ratio)” value was -4.54.

Turning to C73U C124U, the “polymerase ribozyme fitness (log ratio)” value is 1.94.

Turning to U78A C115G U116G, the “polymerase ribozyme fitness (log ratio)” value is -3.11.

With U78A C94A U125G, the “polymerase ribozyme fitness (log ratio)” value is -2.31.

Regarding C72G G113C C114U C115G C124U, the “polymerase ribozyme fitness (log ratio)” value was -4.29.

As to A74U U96C, the “polymerase ribozyme fitness (log ratio)” value is -0.884.

Turning to C72U U81G C85A, the “polymerase ribozyme fitness (log ratio)” value was -3.96.

In the case of C73U C115U, the “polymerase ribozyme fitness (log ratio)” value was -0.667.

Turning to C72A U131C, the “polymerase ribozyme fitness (log ratio)” value was -0.247.

Take C72U G93A C102U G117A: the “polymerase ribozyme fitness (log ratio)” value was -4.25.

On to C72G A111U U130G, for which the “polymerase ribozyme fitness (log ratio)” value was -4.27.

On to C73G U129G, for which the “polymerase ribozyme fitness (log ratio)” value is -2.27.

Consider C73U A90C A95C, for which the “polymerase ribozyme fitness (log ratio)” value is -1.36.

C72G A119G: the “polymerase ribozyme fitness (log ratio)” value amounted to 1.3.

G77C C114A C124U: the “polymerase ribozyme fitness (log ratio)” value is -2.41.

Consider C73A A74C, for which the “polymerase ribozyme fitness (log ratio)” value is -0.174.

As to C73G U133G, the “polymerase ribozyme fitness (log ratio)” value is -1.21.

As to C73G C86U, the “polymerase ribozyme fitness (log ratio)” value is -1.29.

For C73G C86G, the “polymerase ribozyme fitness (log ratio)” value was -2.52.

With C73U C88U, the “polymerase ribozyme fitness (log ratio)” value is -0.361.

Turning to C73U U129G, the “polymerase ribozyme fitness (log ratio)” value is -0.782.

For C73U U129A, the “polymerase ribozyme fitness (log ratio)” value is -1.05.

Take C73U C79A A90C C115A: the “polymerase ribozyme fitness (log ratio)” value is -2.96.

As for C73A U87G, the “polymerase ribozyme fitness (log ratio)” value was -0.467.

For C73A C82U, the “polymerase ribozyme fitness (log ratio)” value is -0.0503.

For G77A U78C C115G, the “polymerase ribozyme fitness (log ratio)” value is -2.5.

With C73G A83U C88G U130A, the “polymerase ribozyme fitness (log ratio)” value was -3.2.

For G77A C89A C94U G122A, the “polymerase ribozyme fitness (log ratio)” value is -4.01.

In the case of C73A C88G A111U U129G, the “polymerase ribozyme fitness (log ratio)” value was -5.91.

As for C73A A91U C94U, the “polymerase ribozyme fitness (log ratio)” value is -2.58.

For the variant A74U G110C, the “polymerase ribozyme fitness (log ratio)” value was -4.41.

In the case of C73A C123A G135C, the “polymerase ribozyme fitness (log ratio)” value was found to be 0.5.

Regarding C73G C124A, the “polymerase ribozyme fitness (log ratio)” value was determined as 1.65.

Consider C73U C97U C102A U130C, for which the “polymerase ribozyme fitness (log ratio)” value was -2.5.

For the variant C73A U126A, the “polymerase ribozyme fitness (log ratio)” value was -1.73.

Regarding C72G U126G, the “polymerase ribozyme fitness (log ratio)” value is -2.09.

Consider C72G A91G, for which the “polymerase ribozyme fitness (log ratio)” value is -1.13.

With C72G A91C, the “polymerase ribozyme fitness (log ratio)” value is -1.51.

As for C73A C86U C124A, the “polymerase ribozyme fitness (log ratio)” value amounted to 1.85.

As for G77U C115G A118C, the “polymerase ribozyme fitness (log ratio)” value is -5.42.

In the case of G77A A91U, the “polymerase ribozyme fitness (log ratio)” value is -1.6.

In the case of C72U C86G, the “polymerase ribozyme fitness (log ratio)” value was -0.742.

For the variant C72U U87G C89U C123A, the “polymerase ribozyme fitness (log ratio)” value turned out to be 0.156.

On to C72U U132C, for which the “polymerase ribozyme fitness (log ratio)” value is -0.841.

C72U C88A C101A: the “polymerase ribozyme fitness (log ratio)” value was -1.43.

Take C73U U78C U92G: the “polymerase ribozyme fitness (log ratio)” value is -2.25.

For G77U C89U A91U U116C G120C G135A, the “polymerase ribozyme fitness (log ratio)” value is -2.85.

On to C73G G120A U129G, for which the “polymerase ribozyme fitness (log ratio)” value is -1.1.

With C76U U81A, the “polymerase ribozyme fitness (log ratio)” value is -0.892.

In the case of C73A C104A, the “polymerase ribozyme fitness (log ratio)” value was -1.07.

Consider C72A U109A C123U, for which the “polymerase ribozyme fitness (log ratio)” value is -6.2.

With A75G C80A G128U U133C G135C, the “polymerase ribozyme fitness (log ratio)” value is -4.6.

As to C72U U92A A95U, the “polymerase ribozyme fitness (log ratio)” value was -4.07.

As to C73U U125A, the “polymerase ribozyme fitness (log ratio)” value was -0.171.

In the case of C72A U87G A111G, the “polymerase ribozyme fitness (log ratio)” value was 0.26.

G77C C114A G127C: the “polymerase ribozyme fitness (log ratio)” value is -2.76.

On to G77C C88A, for which the “polymerase ribozyme fitness (log ratio)” value is -0.0409.

C76G G93A C104U U133A: the “polymerase ribozyme fitness (log ratio)” value is -0.348.

As for C72G C88U U129A, the “polymerase ribozyme fitness (log ratio)” value is -0.881.

As to G77U A91U U133C, the “polymerase ribozyme fitness (log ratio)” value was -1.24.

C72U U96G U126C: the “polymerase ribozyme fitness (log ratio)” value is -1.75.

As to C73A A90U A105G G113C G122C, the “polymerase ribozyme fitness (log ratio)” value was -3.65.

As to G77A C79U C124A, the “polymerase ribozyme fitness (log ratio)” value was 1.87.

In the case of C76U C79A G120C, the “polymerase ribozyme fitness (log ratio)” value is 0.319.

On to G77U C115G G128C, for which the “polymerase ribozyme fitness (log ratio)” value is -2.98.

As for U78A G117A, the “polymerase ribozyme fitness (log ratio)” value was -1.76.

As to U78A C124G, the “polymerase ribozyme fitness (log ratio)” value was determined as 1.42.

On to C73G G110A, for which the “polymerase ribozyme fitness (log ratio)” value is -1.17.

Consider C72U C98U, for which the “polymerase ribozyme fitness (log ratio)” value is -1.53.

Take C72U C104U: the “polymerase ribozyme fitness (log ratio)” value was -0.541.

As for C72G U81G C97U, the “polymerase ribozyme fitness (log ratio)” value is -4.63.

For the variant C72G U92C, the “polymerase ribozyme fitness (log ratio)” value was -1.36.

For G77U G113A, the “polymerase ribozyme fitness (log ratio)” value was -1.38.

Source of the values: the RNAGym collection of RNA variant scans (doi:10.1073/pnas.2313332121).
